According to paper PMC3093405, “A Motif Unique to the Human Dead-Box Protein DDX3 Is Important for Nucleic Acid Binding, ATP Hydrolysis, RNA/DNA Unwinding and HIV-1 Replication” (PLoS ONE, 2011):

Tests used:
DDX3wt (Homo sapiens) = DDX3wt (Homo sapiens) (UniProt O00571); experiment: filter binding; conditions: no ATP hydrolysis; 3 mM Mg2+; 50 µg/ml salmon sperm DNA; EMSA: on ice, protein buffer 25 mM Tris-HCl pH 7.5, 0.5 mM DTT, 20% glycerol, 100 mM NaCl plus 5x binding buffer (10% glycerol, 5 mM MgCl2, 2.5 mM EDTA pH 8 …)
[1] = target: DDX3ΔINS del250-259 (Homo sapiens) (UniProt O00571); experiment: filter binding; conditions: no ATP hydrolysis; 3 mM Mg2+; 50 µg/ml salmon sperm DNA; EMSA: on ice, protein buffer 25 mM Tris-HCl pH 7.5, 0.5 mM DTT, 20% glycerol, 100 mM NaCl plus 5x binding buffer (10% glycerol, 5 mM MgCl2, 2.5 mM EDTA pH 8 …)
Chain of DDX3ΔINS del250-259 (Homo sapiens) (O00571 other isoform, or with tags, fused parts or gaps mutant): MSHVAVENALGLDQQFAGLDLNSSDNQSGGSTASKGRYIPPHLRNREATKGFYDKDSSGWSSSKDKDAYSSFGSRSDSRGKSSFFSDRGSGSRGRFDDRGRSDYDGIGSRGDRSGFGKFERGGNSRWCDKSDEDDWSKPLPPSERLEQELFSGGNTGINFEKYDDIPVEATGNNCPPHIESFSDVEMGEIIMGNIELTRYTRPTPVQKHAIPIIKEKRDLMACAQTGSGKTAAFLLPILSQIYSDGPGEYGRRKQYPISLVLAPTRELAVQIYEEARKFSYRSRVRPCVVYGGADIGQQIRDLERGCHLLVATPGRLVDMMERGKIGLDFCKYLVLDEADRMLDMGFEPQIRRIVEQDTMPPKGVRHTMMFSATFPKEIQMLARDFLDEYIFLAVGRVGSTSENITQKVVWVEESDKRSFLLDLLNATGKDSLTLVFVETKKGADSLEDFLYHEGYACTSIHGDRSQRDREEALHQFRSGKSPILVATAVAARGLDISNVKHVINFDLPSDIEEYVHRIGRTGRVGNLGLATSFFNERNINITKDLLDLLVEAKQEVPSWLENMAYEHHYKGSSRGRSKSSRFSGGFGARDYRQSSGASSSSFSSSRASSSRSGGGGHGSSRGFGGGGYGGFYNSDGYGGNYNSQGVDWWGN

Chain of DDX3wt (Homo sapiens) (O00571 whole entry): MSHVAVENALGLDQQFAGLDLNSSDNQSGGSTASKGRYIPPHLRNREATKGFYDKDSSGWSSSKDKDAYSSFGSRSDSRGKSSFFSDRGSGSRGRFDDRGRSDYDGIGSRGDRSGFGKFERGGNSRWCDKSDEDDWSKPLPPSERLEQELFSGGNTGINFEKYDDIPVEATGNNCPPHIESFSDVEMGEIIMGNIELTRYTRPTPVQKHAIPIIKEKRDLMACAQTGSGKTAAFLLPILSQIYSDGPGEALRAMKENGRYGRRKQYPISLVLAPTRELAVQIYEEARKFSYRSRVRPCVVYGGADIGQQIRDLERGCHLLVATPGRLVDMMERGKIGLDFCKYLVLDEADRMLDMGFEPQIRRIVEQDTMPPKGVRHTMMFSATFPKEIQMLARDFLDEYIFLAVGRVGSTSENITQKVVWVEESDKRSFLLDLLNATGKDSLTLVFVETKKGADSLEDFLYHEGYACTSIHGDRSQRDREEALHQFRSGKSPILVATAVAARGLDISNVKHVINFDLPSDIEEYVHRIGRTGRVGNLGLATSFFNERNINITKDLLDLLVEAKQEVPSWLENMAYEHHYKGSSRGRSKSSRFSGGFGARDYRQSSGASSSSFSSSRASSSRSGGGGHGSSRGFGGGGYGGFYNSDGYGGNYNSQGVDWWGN

Work on 18/36mer dsDNA yielded a binding signal (fold (reference affinity)) (DDX3wt (Homo sapiens)) of 1 and a binding signal (fold reduced affinity vs DDX3wt) [1] of 2.1.
